Source: the supplement of paper PMC6757056
± gives the standard deviation of the averaged measurements.

B1: library; a variant is named by its letters at N, in order (parent)
chain: GCUGUCACCGAGAAACUGUGAAGUAUAUCUUAAACCUGGGCACUUAAAAGAUAUAUGGAGUUAGUAGUGCAACCUGCUCGGUCUGAUGAGUCCNNNNNNGGACGAAACAGC

Legend:
[1] = variants of: B1; test: FACS-Seq fitted mean relative fluorescence mCherry/BFP without ligand (log10 relative fluorescence); HEK293T; ligand: cyclic di-GMP (c-di-GMP-II aptamer); higher = higher reporter protein expression; settings: ligand present: no
How it was run: (§1)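 After lentiviral transduction, HEK293T library cells bearing an mCherry ribozyme-switch reporter and an EF1α-BFP marker were enriched. They were then held for 48 h with or without ligand and sorted by mCherry/BFP into 6 bins, and each bin's genomic DNA was PCR-amplified, barcoded and MiSeq-sequenced. Fluorescence is expressed as a normalized fitted mean: the normal mean of log10(mCherry/BFP) bin counts, scaled to five spiked-in control ribozymes.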

[2] = variants of: B1; test: normalized RNA/DNA level without ligand (relative to sTRSVctl = 100) (log10 (% of sTRSVctl)); HEK293T; ligand: cyclic di-GMP (c-di-GMP-II aptamer); higher = less ribozyme self-cleavage, higher mRNA level; settings: reporter: mCherry (pCS4076), ligand present: no
How it was run: (§2)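 Only sequences with at least 100 DNA reads were analyzed, from HEK293T cells transfected with 4 µg per 6-well well of ribozyme switch library plasmids 72 h before RNA extraction with EDTA. Any ligand was added 1 h before transfection. RNA level was defined as RNA over DNA reads, normalized to a spiked-in non-cleaving sequence or to the top sequences, then scaled and log-transformed. The top set was 25 sequences, and the scaling was ×100 followed by log10.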

[3] = variants of: B1; test: FACS-Seq fitted mean relative fluorescence mCherry/BFP with ligand (log10 relative fluorescence); HEK293T; ligand: cyclic di-GMP (c-di-GMP-II aptamer); ligand concentration (+) FACS-Seq: 1 mM; higher = higher reporter protein expression; settings: ligand present: yes
How it was run: as §1

[4] = variants of: B1; test: normalized RNA/DNA level with ligand (relative to sTRSVctl = 100) (log10 (% of sTRSVctl)); HEK293T; ligand: cyclic di-GMP (c-di-GMP-II aptamer); ligand concentration (+) RNA-Seq: 1 mM; higher = less ribozyme self-cleavage, higher mRNA level; settings: reporter: mCherry (pCS4076), ligand present: yes
How it was run: as §2

Variant	FACS-Seq fitted mean (log10) [1]	normalized RNA/DNA level without ligand (log10) [2]	FACS-Seq fitted mean (log10) [3]	normalized RNA/DNA level with ligand (log10) [4]
GCUGUCACCGAGAAACUGUGAAGUAUAUCUUAAACCUGGGCACUUAAAAGAUAUAUGGAGUUAGUAGUGCAACCUGCUCGGUCUGAUGAGUCCAACUGAGGACGAAACAGC [AACUGA]	-0.155 ± 0.014	1.54 ± 0.047	0.0803 ± 0.017	1.68 ± 0.12
GCUGUCACCGAGAAACUGUGAAGUAUAUCUUAAACCUGGGCACUUAAAAGAUAUAUGGAGUUAGUAGUGCAACCUGCUCGGUCUGAUGAGUCCCCGACAGGACGAAACAGC [CCGACA]	-0.323 ± 0.017	1.56 ± 0.068	-0.142 ± 0.068	1.74 ± 0.11
GCUGUCACCGAGAAACUGUGAAGUAUAUCUUAAACCUGGGCACUUAAAAGAUAUAUGGAGUUAGUAGUGCAACCUGCUCGGUCUGAUGAGUCCACGGAGGGACGAAACAGC [ACGGAG]	-0.541 ± 0.036	1.46 ± 0.12	-0.151 ± 0.062	1.61 ± 0.15
GCUGUCACCGAGAAACUGUGAAGUAUAUCUUAAACCUGGGCACUUAAAAGAUAUAUGGAGUUAGUAGUGCAACCUGCUCGGUCUGAUGAGUCCCGUUAAGGACGAAACAGC [CGUUAA]	-0.684 ± 0.057	1.22 ± 0.036	-0.425 ± 0.019	1.4 ± 0.14
GCUGUCACCGAGAAACUGUGAAGUAUAUCUUAAACCUGGGCACUUAAAAGAUAUAUGGAGUUAGUAGUGCAACCUGCUCGGUCUGAUGAGUCCCGCCUAGGACGAAACAGC [CGCCUA]	-0.608 ± 0.088	1.37 ± 0.12	-0.414 ± 0.049	1.58 ± 0.12
GCUGUCACCGAGAAACUGUGAAGUAUAUCUUAAACCUGGGCACUUAAAAGAUAUAUGGAGUUAGUAGUGCAACCUGCUCGGUCUGAUGAGUCCUCGAUUGGACGAAACAGC [UCGAUU]	-0.335 ± 0.14	1.55 ± 0.074	0.0883 ± 0.079	1.74 ± 0.17
GCUGUCACCGAGAAACUGUGAAGUAUAUCUUAAACCUGGGCACUUAAAAGAUAUAUGGAGUUAGUAGUGCAACCUGCUCGGUCUGAUGAGUCCCCCAUUGGACGAAACAGC [CCCAUU]	-0.0438 ± 0.1	1.637 ± 0.0022	0.204 ± 0.023	1.79 ± 0.13
